Measurements from the supplement of paper PMC9112550, “Optimization of the antimicrobial peptide Bac7 by deep mutational scanning” (BMC Biology, 2022).

Tested on: Escherichia coli TOP10
Test: shrunken log2 fold change of peptide-encoding DNA abundance (4.5 h post-induction vs induction); higher = less antimicrobial activity (less host growth inhibition)
Settings: time post-induction: 4.5 h; library: site-saturation at positions 5, 18, 19, 20
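Note: peptides expressed intracellularly from a pBAD plasmid library in pooled LB shake-flask culture, induced with 0.3% L-arabinose, DNA abundance read by NGS, three biological replicates, DESeq2 with apeglm shrinkage.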

| Sequence | shrunken log2 fold change |
| --- | --- |
| RRIRFRPPRLPRPRPRPYPNPRP | -0.152 |
| RRIRFRPPRLPRPRPRPWKQPRP | -0.469 |
| RRIRTRPPRLPRPRPRPKIEPRP | -0.00653 |
| RRIRTRPPRLPRPRPRPCIPPRP | -1.3 |
| RRIRCRPPRLPRPRPRPALTPRP | 0.224 |
| RRIRTRPPRLPRPRPRPFSMPRP | -0.0868 |
| RRIRKRPPRLPRPRPRPHIWPRP | 0.143 |
| RRIRDRPPRLPRPRPRPMSPPRP | 0.0807 |
| RRIRIRPPRLPRPRPRPQVYPRP | 0.0822 |
| RRIRRRPPRLPRPRPRPKPFPRP | 0.655 |
| RRIRCRPPRLPRPRPRPPLWPRP | 0.32 |
| RRIRIRPPRLPRPRPRPARFPRP | -0.0256 |
| RRIRDRPPRLPRPRPRPPEMPRP | 0.78 |
| RRIRNRPPRLPRPRPRPIKSPRP | -0.245 |
| RRIRPRPPRLPRPRPRPCWVPRP | 0.143 |
| RRIRHRPPRLPRPRPRPKLGPRP | -0.249 |
| RRIRARPPRLPRPRPRPWWAPRP | 0.289 |
| RRIRCRPPRLPRPRPRPNHHPRP | -0.604 |
| RRIRKRPPRLPRPRPRPENFPRP | -0.00264 |
| RRIRQRPPRLPRPRPRPWNKPRP | -0.34 |
| RRIRTRPPRLPRPRPRPIFSPRP | -0.393 |
| RRIRMRPPRLPRPRPRPFEQPRP | 0.0263 |
| RRIRGRPPRLPRPRPRPHAPPRP | 1.23 |
| RRIRERPPRLPRPRPRPERTPRP | 0.0163 |
| RRIRWRPPRLPRPRPRPGLGPRP | 0.83 |

| Sequence | shrunken log2 fold change |
| --- | --- |
| RRIRDRPPRLPRPRPRPEDLPRP | 0.902 |
| RRIRIRPPRLPRPRPRPLLAPRP | 0.185 |
| RRIRSRPPRLPRPRPRPVAEPRP | 1.28 |
| RRIRKRPPRLPRPRPRPMFTPRP | -0.0707 |
| RRIRNRPPRLPRPRPRPVKQPRP | 0.00788 |
| RRIRCRPPRLPRPRPRPRFWPRP | 0.167 |
| RRIRNRPPRLPRPRPRPDGEPRP | -0.00776 |
| RRIRSRPPRLPRPRPRPKFFPRP | 0.113 |
| RRIRQRPPRLPRPRPRPMFNPRP | -0.436 |
| RRIRTRPPRLPRPRPRPFRMPRP | 0.0244 |
| RRIRMRPPRLPRPRPRPTLEPRP | 0.259 |
| RRIRFRPPRLPRPRPRPWPQPRP | 0.127 |
| RRIRRRPPRLPRPRPRPWCSPRP | -0.0123 |
| RRIRVRPPRLPRPRPRPSGGPRP | 0.104 |
| RRIRLRPPRLPRPRPRPHATPRP | -0.0435 |
| RRIRARPPRLPRPRPRPYGTPRP | -0.131 |
| RRIRERPPRLPRPRPRPEVPPRP | -0.00233 |
| RRIRKRPPRLPRPRPRPFCCPRP | 0.27 |
| RRIRVRPPRLPRPRPRPQGMPRP | -1.02 |
| RRIRSRPPRLPRPRPRPMRRPRP | 0.732 |
| RRIRARPPRLPRPRPRPTPHPRP | 0.598 |
| RRIRFRPPRLPRPRPRPRVTPRP | 0.42 |
| RRIRKRPPRLPRPRPRPHHTPRP | -0.254 |
| RRIRLRPPRLPRPRPRPDIVPRP | -0.0115 |
| RRIRGRPPRLPRPRPRPSDIPRP | 0.399 |

| Sequence | shrunken log2 fold change |
| --- | --- |
| RRIRERPPRLPRPRPRPEPNPRP | 0.366 |
| RRIRSRPPRLPRPRPRPDKLPRP | -0.266 |
| RRIRVRPPRLPRPRPRPTEYPRP | 0.0465 |
| RRIRFRPPRLPRPRPRPCYHPRP | -0.859 |
| RRIRWRPPRLPRPRPRPMIFPRP | -0.302 |
| RRIRIRPPRLPRPRPRPITDPRP | -0.0192 |
| RRIRPRPPRLPRPRPRPINDPRP | -0.178 |
| RRIRWRPPRLPRPRPRPCCQPRP | 0.0191 |
| RRIRDRPPRLPRPRPRPWSNPRP | -0.678 |
| RRIRARPPRLPRPRPRPNEAPRP | 0.269 |
| RRIRSRPPRLPRPRPRPMSQPRP | -0.0303 |
| RRIRGRPPRLPRPRPRPNPDPRP | 0.221 |
| RRIRIRPPRLPRPRPRPGQDPRP | -0.165 |
| RRIRHRPPRLPRPRPRPKRPPRP | 0.354 |
| RRIRNRPPRLPRPRPRPTQTPRP | -0.0444 |
| RRIRSRPPRLPRPRPRPACNPRP | -0.285 |
| RRIRMRPPRLPRPRPRPDLIPRP | 0.0508 |
| RRIRFRPPRLPRPRPRPLFLPRP | -0.478 |
| RRIRYRPPRLPRPRPRPEYSPRP | -0.0605 |
| RRIRIRPPRLPRPRPRPCAFPRP | -0.1 |
| RRIRRRPPRLPRPRPRPVRSPRP | 0.551 |
| RRIRFRPPRLPRPRPRPLKEPRP | -0.273 |
| RRIRERPPRLPRPRPRPTTFPRP | -0.367 |
| RRIRPRPPRLPRPRPRPNPFPRP | -0.382 |
| RRIRARPPRLPRPRPRPHTTPRP | -0.481 |

| Sequence | shrunken log2 fold change |
| --- | --- |
| RRIRTRPPRLPRPRPRPHVYPRP | -0.496 |
| RRIRARPPRLPRPRPRPKHVPRP | 0.0861 |
| RRIRQRPPRLPRPRPRPKMPPRP | -0.0283 |
| RRIRDRPPRLPRPRPRPMWQPRP | 0.00699 |
| RRIRHRPPRLPRPRPRPVVKPRP | -0.132 |
| RRIRTRPPRLPRPRPRPMNPPRP | -0.141 |
| RRIRQRPPRLPRPRPRPHKCPRP | -0.364 |
| RRIRCRPPRLPRPRPRPFHFPRP | -0.954 |
| RRIRFRPPRLPRPRPRPAANPRP | 0.22 |
| RRIRWRPPRLPRPRPRPHCYPRP | -0.0542 |
| RRIRERPPRLPRPRPRPKKHPRP | -0.55 |
| RRIRPRPPRLPRPRPRPLNFPRP | -0.139 |
| RRIRPRPPRLPRPRPRPVNLPRP | -0.136 |
| RRIRWRPPRLPRPRPRPFVWPRP | 0.128 |
| RRIRKRPPRLPRPRPRPTWVPRP | -0.105 |
| RRIRPRPPRLPRPRPRPSGVPRP | -0.0831 |
| RRIRDRPPRLPRPRPRPDMTPRP | 0.242 |
| RRIRIRPPRLPRPRPRPNEYPRP | -0.182 |
| RRIRCRPPRLPRPRPRPIMTPRP | -0.00708 |
| RRIRDRPPRLPRPRPRPSHCPRP | -0.29 |
| RRIRARPPRLPRPRPRPFWWPRP | 0.923 |
| RRIRGRPPRLPRPRPRPVTEPRP | 0.706 |
| RRIRHRPPRLPRPRPRPNVYPRP | -0.149 |
| RRIRRRPPRLPRPRPRPMTSPRP | -0.00455 |
| RRIRGRPPRLPRPRPRPIREPRP | -0.0123 |

| Sequence | shrunken log2 fold change |
| --- | --- |
| RRIRLRPPRLPRPRPRPMYWPRP | -0.115 |
| RRIRDRPPRLPRPRPRPKWDPRP | 0.488 |
| RRIRKRPPRLPRPRPRPGSIPRP | 0.00442 |
| RRIRRRPPRLPRPRPRPIGYPRP | 0.0143 |
| RRIRFRPPRLPRPRPRPLHEPRP | 0.0931 |
| RRIRGRPPRLPRPRPRPHVRPRP | 0.427 |
| RRIRRRPPRLPRPRPRPKANPRP | 0.264 |
| RRIRSRPPRLPRPRPRPVLMPRP | -0.0465 |
| RRIRLRPPRLPRPRPRPAVSPRP | -0.0934 |
| RRIRYRPPRLPRPRPRPKARPRP | 0.0182 |
| RRIRVRPPRLPRPRPRPWGKPRP | -0.0952 |
| RRIRYRPPRLPRPRPRPFFFPRP | -0.253 |
| RRIRQRPPRLPRPRPRPSVVPRP | 0.082 |
| RRIRLRPPRLPRPRPRPNPCPRP | -0.398 |
| RRIRWRPPRLPRPRPRPFREPRP | -0.105 |
| RRIRLRPPRLPRPRPRPCAVPRP | -0.00495 |
| RRIRTRPPRLPRPRPRPRVIPRP | -0.12 |
| RRIRKRPPRLPRPRPRPMQEPRP | 0.0391 |
| RRIRFRPPRLPRPRPRPHKPPRP | 0.14 |
| RRIRDRPPRLPRPRPRPMNYPRP | 0.185 |
| RRIRKRPPRLPRPRPRPPCSPRP | 0.202 |
| RRIRIRPPRLPRPRPRPDGNPRP | -0.0425 |
| RRIRTRPPRLPRPRPRPFQSPRP | 0.00942 |
| RRIRRRPPRLPRPRPRPHTNPRP | -0.547 |
| RRIRARPPRLPRPRPRPCALPRP | 0.00197 |

| Sequence | shrunken log2 fold change |
| --- | --- |
| RRIRNRPPRLPRPRPRPHMGPRP | -0.133 |
| RRIRERPPRLPRPRPRPSWRPRP | -0.0751 |
| RRIRFRPPRLPRPRPRPYGAPRP | -0.193 |
| RRIRMRPPRLPRPRPRPSRRPRP | 0.189 |
| RRIRHRPPRLPRPRPRPNMTPRP | 0.0729 |
| RRIRPRPPRLPRPRPRPPPGPRP | 0.816 |
| RRIRLRPPRLPRPRPRPGRAPRP | 0.469 |
| RRIRGRPPRLPRPRPRPHTNPRP | 0.221 |
| RRIRHRPPRLPRPRPRPSQPPRP | -0.184 |
| RRIRFRPPRLPRPRPRPVELPRP | -0.00737 |
| RRIRKRPPRLPRPRPRPAVGPRP | 0.472 |
| RRIRKRPPRLPRPRPRPVQVPRP | -0.0596 |
| RRIRPRPPRLPRPRPRPPPAPRP | 2.01 |
| RRIRDRPPRLPRPRPRPSWAPRP | -0.102 |
| RRIRWRPPRLPRPRPRPEPYPRP | 0.0876 |
| RRIRSRPPRLPRPRPRPLWCPRP | 0.148 |
| RRIRVRPPRLPRPRPRPGYSPRP | -0.553 |
| RRIRHRPPRLPRPRPRPASWPRP | 0.305 |
| RRIRLRPPRLPRPRPRPANDPRP | 0.0379 |
| RRIRARPPRLPRPRPRPIRVPRP | 0.125 |
| RRIRYRPPRLPRPRPRPFPQPRP | -0.137 |
| RRIRGRPPRLPRPRPRPNEHPRP | 0.435 |
| RRIRERPPRLPRPRPRPEKCPRP | -0.00149 |
| RRIRFRPPRLPRPRPRPAHLPRP | -0.0824 |
| RRIRARPPRLPRPRPRPHRTPRP | -0.115 |
